Assay results as given in article PMC11289882 (2024).

Tests used:
CITED2 variant 4 218-256 = molecular target: T1, CITED2 variant 4 218-256 (Homo sapiens, UniProt Q99967, beta3-amino acid replacements in C-terminus); test: ITC
T1 chain: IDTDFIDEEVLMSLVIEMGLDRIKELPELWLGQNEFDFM

[1] = molecular target: T2, CITED2 variant 3b 218-256 (Homo sapiens, UniProt Q99967, beta3-amino acid replacements in loop); test: ITC
T2 chain: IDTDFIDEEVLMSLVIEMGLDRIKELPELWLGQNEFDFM

[2] = molecular target: T3, CITED2 variant 3c 218-256 (Homo sapiens, UniProt Q99967, beta3-amino acid replacements in loop); test: ITC
T3 chain: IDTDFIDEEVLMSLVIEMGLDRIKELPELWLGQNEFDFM

CITED2 variant 2 218-256 = molecular target: T4, CITED2 variant 2 218-256 (Homo sapiens, UniProt Q99967, beta3-amino acid replacements in αA helix); test: ITC
T4 chain: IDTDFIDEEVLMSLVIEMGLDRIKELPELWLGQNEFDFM

CITED2 variant 1 218-256 = molecular target: T5, CITED2 variant 1 218-256 (Homo sapiens, UniProt Q99967, beta3-amino acid replacements in N-terminal tail); test: ITC
T5 chain: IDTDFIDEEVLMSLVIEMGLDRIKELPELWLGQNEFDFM

[3] = molecular target: T6, CITED2 variant 3a 218-256 (Homo sapiens, UniProt Q99967, beta3-amino acid replacements in loop (LPEL motif)); test: ITC
T6 chain: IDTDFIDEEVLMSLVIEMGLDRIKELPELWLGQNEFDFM

HIF-1α 776-826 = molecular target: T7, HIF-1α 776-826 (Homo sapiens, UniProt Q16665); test: anisotropy
T7 chain: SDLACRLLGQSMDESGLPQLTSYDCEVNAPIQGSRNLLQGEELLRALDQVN

B1: p300 TAZ1 330-420 (protein)
chain: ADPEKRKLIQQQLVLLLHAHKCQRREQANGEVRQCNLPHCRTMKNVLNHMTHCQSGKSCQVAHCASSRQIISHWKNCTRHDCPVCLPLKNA
Binder B1 has a Kd (CITED2 variant 4 218-256) of 17 nM, a Kd [1] of 98 nM and a Kd [2] of 29 nM. For the same binder, the Kd (CITED2 variant 2 218-256) was 16 nM, the Kd (CITED2 variant 1 218-256) was 19 nM and the Kd [3] was 675 nM. It also gave a Kd (HIF-1α 776-826) of 57 nM.
